Results reported in the supplement of paper PMC10567573.

B1: CLCN6 (parent)
chain: MAGCRGSLCCCCRWCCCCGERETR
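Also: lentivirally expressed fusions sorted by FACS into six bins by GFP to DsRed ratio, PSI derived from sequencing read proportions per bin multiplied by bin number.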

Variants of: B1
Assay: protein stability index of a GFP-peptide fusion (GPS, HEK-293T) (PSI 1-6); higher = more stable
Settings: c terminus: a fixed tail appended
For MAGCRTSLCCCCRWCCCCGERETR [G6T], the protein stability index was 1.59. With MAGFRGSLCCCCRWCCCCGERETR [C4F] the protein stability index was 2.4. For MAGHRGSLCCCCRWCCCCGERETR [C4H], the protein stability index was 2.07. MAGARGSLCCCCRWCCCCGERETR [C4A] showed a protein stability index of 1.84. For MAGLRGSLCCCCRWCCCCGERETR [C4L], the protein stability index was 2.74. MAGDRGSLCCCCRWCCCCGERETR [C4D] showed a protein stability index of 2.24. In the case of MAGKRGSLCCCCRWCCCCGERETR [C4K], the protein stability index is reported as 2.35. Work on MAGGRGSLCCCCRWCCCCGERETR [C4G] yielded a protein stability index of 1.45. In the case of MAGIRGSLCCCCRWCCCCGERETR [C4I], the protein stability index is reported as 1.61. MAGSRGSLCCCCRWCCCCGERETR [C4S] showed a protein stability index of 1.69. For MAGERGSLCCCCRWCCCCGERETR [C4E], the protein stability index was 2.58. For MAGYRGSLCCCCRWCCCCGERETR [C4Y], the protein stability index was 2.12. MAGWRGSLCCCCRWCCCCGERETR [C4W] gave a protein stability index of 1.79. For MAGRRGSLCCCCRWCCCCGERETR [C4R], the protein stability index was 2.33. Variant MAGCRGSLCICCRWCCCCGERETR [C10I] has a protein stability index of 1.79. With MAGCRGSLCMCCRWCCCCGERETR [C10M] the protein stability index was 1.28. In the case of MAGCRGSLCHCCRWCCCCGERETR [C10H], the protein stability index is reported as 1.69. MAGCRGSLCFCCRWCCCCGERETR [C10F] gave a protein stability index of 1.36. MAGCRGSLCKCCRWCCCCGERETR [C10K] showed a protein stability index of 2.07. For MAGCRGSLCDCCRWCCCCGERETR [C10D], the protein stability index was 1.24. Work on MAGCRGSLCTCCRWCCCCGERETR [C10T] yielded a protein stability index of 3.66. Work on MAGCRGSLCNCCRWCCCCGERETR [C10N] yielded a protein stability index of 1.7. Work on MAGCRGSLCQCCRWCCCCGERETR [C10Q] yielded a protein stability index of 1.54. MAGCRGSLCACCRWCCCCGERETR [C10A] gave a protein stability index of 1.42. Variant MAGCRGSLCPCCRWCCCCGERETR [C10P] has a protein stability index of 1.45. Variant SAGCRGSLCCCCRWCCCCGERETR [M1S] has a protein stability index of 1.56. For HAGCRGSLCCCCRWCCCCGERETR [M1H], the protein stability index was 2.14. LAGCRGSLCCCCRWCCCCGERETR [M1L] showed a protein stability index of 1.39. With QAGCRGSLCCCCRWCCCCGERETR [M1Q] the protein stability index was 1.65. In the case of KAGCRGSLCCCCRWCCCCGERETR [M1K], the protein stability index is reported as 2.14. For AAGCRGSLCCCCRWCCCCGERETR [M1A], the protein stability index was 1.91. NAGCRGSLCCCCRWCCCCGERETR [M1N] showed a protein stability index of 1.56. For CAGCRGSLCCCCRWCCCCGERETR [M1C], the protein stability index was 1.98. For EAGCRGSLCCCCRWCCCCGERETR [M1E], the protein stability index was 1.22. Variant DAGCRGSLCCCCRWCCCCGERETR [M1D] has a protein stability index of 1.78. In the case of GAGCRGSLCCCCRWCCCCGERETR [M1G], the protein stability index is reported as 1.86. With PAGCRGSLCCCCRWCCCCGERETR [M1P] the protein stability index was 2.12. MAGCRGKLCCCCRWCCCCGERETR [S7K] gave a protein stability index of 1.5. In the case of MAGCRGFLCCCCRWCCCCGERETR [S7F], the protein stability index is reported as 1.91. Variant MAGCRGCLCCCCRWCCCCGERETR [S7C] has a protein stability index of 2.52. MAGCRGYLCCCCRWCCCCGERETR [S7Y] gave a protein stability index of 1.43. With MAGCRGHLCCCCRWCCCCGERETR [S7H] the protein stability index was 1.89. For MAGCRGNLCCCCRWCCCCGERETR [S7N], the protein stability index was 1.09. Variant MAGCRGRLCCCCRWCCCCGERETR [S7R] has a protein stability index of 1.37. Variant MAGCRGPLCCCCRWCCCCGERETR [S7P] has a protein stability index of 2.19. MAGCRGTLCCCCRWCCCCGERETR [S7T] showed a protein stability index of 1.77. With MAGCRGWLCCCCRWCCCCGERETR [S7W] the protein stability index was 2.47. In the case of MAGCRGLLCCCCRWCCCCGERETR [S7L], the protein stability index is reported as 1.9. Variant MAGCRGALCCCCRWCCCCGERETR [S7A] has a protein stability index of 1.5. Work on MAGCRGILCCCCRWCCCCGERETR [S7I] yielded a protein stability index of 2.55. With MAGCRGQLCCCCRWCCCCGERETR [S7Q] the protein stability index was 1.49. Variant MAPCRGSLCCCCRWCCCCGERETR [G3P] has a protein stability index of 1.27. MAICRGSLCCCCRWCCCCGERETR [G3I] gave a protein stability index of 1.44. In the case of MANCRGSLCCCCRWCCCCGERETR [G3N], the protein stability index is reported as 1.5. Variant MAKCRGSLCCCCRWCCCCGERETR [G3K] has a protein stability index of 1.52. In the case of MAECRGSLCCCCRWCCCCGERETR [G3E], the protein stability index is reported as 2.09. In the case of MADCRGSLCCCCRWCCCCGERETR [G3D], the protein stability index is reported as 1.8. MAMCRGSLCCCCRWCCCCGERETR [G3M] showed a protein stability index of 1.99. For MAFCRGSLCCCCRWCCCCGERETR [G3F], the protein stability index was 2.11. MAWCRGSLCCCCRWCCCCGERETR [G3W] gave a protein stability index of 1.9. MAVCRGSLCCCCRWCCCCGERETR [G3V] gave a protein stability index of 1.15. MAQCRGSLCCCCRWCCCCGERETR [G3Q] gave a protein stability index of 1.31. MAYCRGSLCCCCRWCCCCGERETR [G3Y] gave a protein stability index of 2.37. For MARCRGSLCCCCRWCCCCGERETR [G3R], the protein stability index was 2.1. MAGCRGSLTCCCRWCCCCGERETR [C9T] showed a protein stability index of 2.16. With MAGCRGSLDCCCRWCCCCGERETR [C9D] the protein stability index was 1.18. Work on MAGCRGSLPCCCRWCCCCGERETR [C9P] yielded a protein stability index of 1.69. Variant MAGCRGSLLCCCRWCCCCGERETR [C9L] has a protein stability index of 1.64. Work on MAGCRGSLGCCCRWCCCCGERETR [C9G] yielded a protein stability index of 2.23. With MAGCRGSLACCCRWCCCCGERETR [C9A] the protein stability index was 3.15. In the case of MAGCRGSLFCCCRWCCCCGERETR [C9F], the protein stability index is reported as 1.77. MAGCRGSLWCCCRWCCCCGERETR [C9W] showed a protein stability index of 2.65. In the case of MAGCRGSLKCCCRWCCCCGERETR [C9K], the protein stability index is reported as 1.77. MAGCRGSLYCCCRWCCCCGERETR [C9Y] showed a protein stability index of 1.69. Variant MAGCRGSLICCCRWCCCCGERETR [C9I] has a protein stability index of 1.76. In the case of MAGCRGSLNCCCRWCCCCGERETR [C9N], the protein stability index is reported as 1.67. With MAGCRGSLQCCCRWCCCCGERETR [C9Q] the protein stability index was 2.64. MAGCRGSLRCCCRWCCCCGERETR [C9R] showed a protein stability index of 1.28. MAGCRGSLHCCCRWCCCCGERETR [C9H] showed a protein stability index of 3.07. MAGCRGSLECCCRWCCCCGERETR [C9E] gave a protein stability index of 1.45. For MAGCRGSLMCCCRWCCCCGERETR [C9M], the protein stability index was 2.65. MHGCRGSLCCCCRWCCCCGERETR [A2H] gave a protein stability index of 2.81. MFGCRGSLCCCCRWCCCCGERETR [A2F] showed a protein stability index of 2.2. With MGGCRGSLCCCCRWCCCCGERETR [A2G] the protein stability index was 2.1. Variant MEGCRGSLCCCCRWCCCCGERETR [A2E] has a protein stability index of 2.77. Work on MQGCRGSLCCCCRWCCCCGERETR [A2Q] yielded a protein stability index of 1.74. Variant MKGCRGSLCCCCRWCCCCGERETR [A2K] has a protein stability index of 2.68. MMGCRGSLCCCCRWCCCCGERETR [A2M] gave a protein stability index of 1.73. With MPGCRGSLCCCCRWCCCCGERETR [A2P] the protein stability index was 1.37. With MYGCRGSLCCCCRWCCCCGERETR [A2Y] the protein stability index was 1.98. With MIGCRGSLCCCCRWCCCCGERETR [A2I] the protein stability index was 2.07. In the case of MVGCRGSLCCCCRWCCCCGERETR [A2V], the protein stability index is reported as 1.46. Variant MDGCRGSLCCCCRWCCCCGERETR [A2D] has a protein stability index of 2. Work on MLGCRGSLCCCCRWCCCCGERETR [A2L] yielded a protein stability index of 1.33.
